The numbers were not newly measured in patent US5654276A, “Peptides and compounds that bind to the IL-5 receptor” (Affymax Technologies N.V., priority 1995, dated 1997), which cites them from elsewhere.

For the series, the target named is T1, human IL-5 receptor (Homo sapiens, UniProt Q01344).
T1 construct: host or cells: HL60 subclone induced towards eosinophil differentiation with sodium butyrate (endogenous receptor)
T1 sequence (Q01344 21-420): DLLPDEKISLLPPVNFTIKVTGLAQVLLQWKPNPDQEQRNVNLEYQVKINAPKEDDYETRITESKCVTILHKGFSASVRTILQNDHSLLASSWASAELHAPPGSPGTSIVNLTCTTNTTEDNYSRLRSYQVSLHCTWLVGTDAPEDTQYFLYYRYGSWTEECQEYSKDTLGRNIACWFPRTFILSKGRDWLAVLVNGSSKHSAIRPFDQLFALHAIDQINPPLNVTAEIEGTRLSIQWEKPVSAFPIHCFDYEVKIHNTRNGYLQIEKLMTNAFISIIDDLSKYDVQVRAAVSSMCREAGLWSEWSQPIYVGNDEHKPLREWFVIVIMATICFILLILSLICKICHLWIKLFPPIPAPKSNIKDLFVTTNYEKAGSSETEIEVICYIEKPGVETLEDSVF
T1 sequence (P32927 17-897 partner): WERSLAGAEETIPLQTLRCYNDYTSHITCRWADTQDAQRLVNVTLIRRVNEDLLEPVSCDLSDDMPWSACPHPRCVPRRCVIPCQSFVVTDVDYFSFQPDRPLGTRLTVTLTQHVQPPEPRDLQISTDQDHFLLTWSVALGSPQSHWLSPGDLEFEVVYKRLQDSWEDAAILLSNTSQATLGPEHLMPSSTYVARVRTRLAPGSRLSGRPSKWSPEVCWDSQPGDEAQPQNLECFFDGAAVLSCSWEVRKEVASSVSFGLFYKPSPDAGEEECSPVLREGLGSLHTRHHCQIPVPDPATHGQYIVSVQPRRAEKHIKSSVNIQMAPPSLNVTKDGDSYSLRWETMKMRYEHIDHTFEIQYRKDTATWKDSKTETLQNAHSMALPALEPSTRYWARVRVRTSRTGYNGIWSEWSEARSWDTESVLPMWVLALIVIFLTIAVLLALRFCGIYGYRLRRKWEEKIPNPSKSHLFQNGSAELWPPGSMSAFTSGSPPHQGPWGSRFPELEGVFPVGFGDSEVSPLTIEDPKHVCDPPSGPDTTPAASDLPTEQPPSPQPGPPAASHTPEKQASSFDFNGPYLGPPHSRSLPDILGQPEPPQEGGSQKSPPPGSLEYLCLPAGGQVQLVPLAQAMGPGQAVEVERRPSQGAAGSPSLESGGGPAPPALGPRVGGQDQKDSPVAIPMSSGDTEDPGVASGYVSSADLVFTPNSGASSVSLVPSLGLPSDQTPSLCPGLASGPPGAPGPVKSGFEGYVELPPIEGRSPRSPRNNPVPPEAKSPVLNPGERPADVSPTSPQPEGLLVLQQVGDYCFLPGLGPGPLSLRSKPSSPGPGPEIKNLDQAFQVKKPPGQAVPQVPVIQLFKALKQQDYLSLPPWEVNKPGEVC
To be noted: HL60 subclone, eosinophilic differentiation initiated with sodium butyrate; read-out: Kd of IL-5 binding sites.

One may read the Kd as the equilibrium constant for the complex coming apart. Consider “IL-5: lymphokine secreted by T cells and mast cells having biological activities on B cells and eosinophils”, for which the Kd is 0.03 nM.
